Measured values reported in patent US20160228506A1, “Compositions and Formulations for Prevention and Reduction of Tumorigenesis, Cancer Cell Proliferation and Invasion, and Methods of Production and Use Thereof in Cancer Treatment” (PRONUTRIA, INC., priority 2013, published 2016).
Residue numbers refer to the chain shown, from its start. Names may count otherwise.

B1: SEQID-00098: nutritive polypeptide (protein, listed as Lactococcus lactis)
chain: MAVFEKVQDIIVDELGKEKEEVTLETSFEELDADSLDLFQIINDIEDEFDVEVDTEADMKTVADLVKYVENNK
B2: SEQID-00420: nutritive polypeptide (protein)
chain: AAAPLEKRSCTFTSASAAKSGKSSCSTITLDNIAVPAGETLDLTGLKKGTTVIFEGETTFGYKEWKGPLISMSGTDITVKQASGAKINCDGARWWDGKGSNGGKTKPKFFQAHKLDQSSITGLKVYNTPVQGFSILADHLTITDVTIDNSAGTSKGHNTDAFDIGQSTYITIDGATVYNQDDCLAINSGEHITFTNGYCDGGHGLSIGSIGGRSDNTVNDVTISNSKVLNSQNGVRIKTIYGKTGTVENVKFEDITLSDISKYGIVVEQDYENGSPTGTPTNGVKVEDITFKKVTGSVKSSGTDIYILCGSGSCSNWTWSGVDVTGGKKSSKCKNVPSGASCSD
modifications: Aspergillus niger; source: /note="strain CBS 513.88 / FGSC A1513"
B3: SEQID-00546: protein of the 168 nutritive polypeptide library (protein, listed as Saccharomyces cerevisiae)
chain: MCSAGGIRRPIQIEEFKTAISGMSDMELAQIKTEIENSINHLQRSNARLGKYIAKLEGADDRLEADDSDDLENIDSGDLALYKDSVRENEIVLNNYNERVDALEQETVYRKTGHGKSKHEVEAKDNTNKGPDVDMDNSNVDVVTPNSIFI
modifications: source: /note="strain ATCC 204508 / S288c"
notes: protein of the 168 nutritive polypeptide library
B4: SEQID-00598: nutritive polypeptide naturally produced in Flaxseed, recombinantly expressed in E. coli (protein, listed as Linum usitatissimum)
chain: MSRRCPGKNAWPELVGKSGNMAAATVERENRNVHAIVLKEGSAMTKDFRCDRVWVIVNDHGVVTSVPHIT
B5: SEQID-00672 (BS): nutritive polypeptide (protein, listed as Saccharomyces cerevisiae)
chain: MSSSESIRMVLIGPPGAGKGTQAPNLQERFHAAHLATGDMLRSQIAKGTQLGLEAKKIMDQGGLVSDDIMVNMIKDELTNNPACKNGFILDGFPRTIPQAEKLDQMLKEQGTPLEKAIELKVDDELLVARITGRLIHPASGRSYHKIFNPPKEDMKDDVTGEALVQRSDDNADALKKRLAAYHAQTEPIVDFYKKTGIWAGVDASQPPATVWADILNKLGKD
modifications: source: /note="strain ATCC 204508 / S288c"
B6: SEQID-00678 (BS): nutritive polypeptide (protein, listed as Saccharomyces cerevisiae)
chain: B5 chain with R42K
modifications: source: /note="strain ATCC 204508 / S288c"
B7: SEQID-00647: protein of the 168 nutritive polypeptide library (protein)
chain: MALSKIEEARQLNDDDLSEQILEIKKQLANLRLLKATGRLEKPHEIRHTRHRLSQLLTVERERQLPNQSPA
modifications: Arthrospira platensis C1
notes: as for B3
B8: SEQID-00407 (BS): α-amylase in Bacillus subtilis; Wild-type of Tables E37A and E38E (protein, listed as Bacillus subtilis)
chain: ETANKSNELTAPSIKSGTILHAWNWSFNTLKHNMKDIHDAGYTAIQTSPINQVKEGNQGDKSMSNWYWLYQPTSYQIGNRYLGTEQEFKEMCAAAEEYGIKVIVDAVINHTTSDYAAISNEVKSIPNWTHGNTQIKNWSDRWDVTQNSLLGLYDWNTQNTQVQSYLKRFLDRALNDGADGFRFDAAKHIELPDDGSYGSQFWPNITNTSAEFQYGEILQDSASRDAAYANYMDVTASNYGHSIRSALKNRNLGVSNISHYASDVSADKLVTWVESHDTYANDDEESTWMSDDDIRLGWAVIASRSGSTPLFFSRPEGGGNGVRFPGKSQIGDRGSALFEDQAITAVNRFHNVMAGQPEELSNPNGNNQIFMNQRGSHGVVLANAGSSSVSINTATKLPDGRYDNKAGAGSFQVNDGKLTGTINARSVAVLYPDDIAKAPHVFLENYKTGVTHSFNDQLTITLRADANTTKAVYQINNGPETAFKDGDQFTIGKGDPFGKTYTIMLKGTNSDGVTRTEKYSFVKRDPASAKTIGYQNPNHWSQVNAYIYKHDGSRVIELTGSWPGKPMTKNADGIYTLTLPADTDTTNAKVIFNNGSAQVPGQNQPGFDYVLNGLYNDSGLSGSLPH
modifications: source: /note="strain 168"
B9: SEQID-00363 (E. coli): SEQID-00363 expressed recombinantly in E. coli (protein)
chain: ATLDSWLSNEATVARTAILNNIGADGAWVSGADSGIVVASPSTDNPDYFYTWTRDSGLVLKTLVDLFRNGDTSLLSTIENYISAQAIVQGISNPSGDLSSGAGLGEPKFNVDETAYTGSWGRPQRDGPALRATAMIGFGQWLLDNGYTSTATDIVWPLVRNDLSYVAQYWNQTGYDLWEEVNGSSFFTIAVQHRALVEGSAFATAVGSSCSWCDSQAPEILCYLQSFWTGSFILANFDSSRSGKDANTLLGSIHTFDPEAACDDSTFQPCSPRALANHKEVVDSFRSIYTLNDGLSDSEAVAVGRYPEDTYYNGNPWFLCTLAAAEQLYDALYQWDKQGSLEVTDVSLDFFKALYSDAATGTYSSSSSTYSSIVDAVKTFADGFVSIVETHAASNGSMSEQYDKSDGEQLSARDLTWSYAALLTANNRRNSVVPASWGETSASSVPGTCAATSAIGTYSSVTVTSWPSIVATGGTTTTATPTGSGSVTSTSKTTATASKTSTSTSSTSCTTPTAVAVTFDLTATTTYGENIYLVGSISQLGDWETSDGIALSADKYTSSDPLWYVTVTLPAGESFEYKFIRIESDDSVEWESDPNREYTVPQACGTSTATVTDTWR
modifications: Aspergillus niger
B10: SEQID-00418: nutritive polypeptide (protein)
chain: VPRVRRQGASSSFDYKSQIVRGVNLGGWLVTEPWITPSLYDSTGGGAVDEWTLCQILGKDEAQAKLSSHWSSFITQSDFDRMAQAGLNHVRIPIGYWAVAPIDGEPYVSGQIDYLDQAVTWARAAGLKVLVDLHGAPGSQNGFDNSGHRGPIQWQQGDTVNQTMTAFDALARRYAQSDTVTAIEAVNEPNIPGGVNEDGLKNYYYGALADVQRLNPSTTLFMSDGFQPVESWNGFMQGSNVVMDTHHYQVFDTGLLSMSIDDHVKTACSLATQHTMQSDKPVVVGEWTGALTDCAKYLNGVGNAARYDGTYMSTTKYGDCTGKSTGSVADFSADEKANTRRYIEAQLEAYEMKSGWLFWTWKTEGAPGWDMQDLLANQLFPTSPTDRQYPHQCS
modifications: Aspergillus niger; source: /note="strain CBS 513.88 / FGSC A1513"
B11: SEQID-00418 (E. coli): nutritive polypeptide (protein)
chain: B10 chain
modifications: Aspergillus niger; source: /note="strain CBS 513.88 / FGSC A1513"
B12: SEQID-00001 (HEK293): nutritive polypeptide (protein, listed as Gallus gallus)
chain: MGSIGAASMEFCFDVFKELKVHHANENIFYCPIAIMSALAMVYLGAKDSTRTQINKVVRFDKLPGFGDSIEAQCGTSVNVHSSLRDILNQITKPNDVYSFSLASRLYAEERYPILPEYLQCVKELYRGGLEPINFQTAADQARELINSWVESQTNGIIRNVLQPSSVDSQTAMVLVNAIVFKGLWEKAFKDEDTQAMPFRVTEQESKPVQMMYQIGLFRVASMASEKMKILELPFASGTMSMLVLLPDEVSGLEQLESIINFEKLTEWTSSNVMEERKIKVYLPRMKMEEKYNLTSVLMAMGITDVFSSSANLSGISSAESLKISQAVHAAHAEINEAGREVVGSAEAGVDAASVSEEFRADHPFLFCIKHIATNAVLFFGRCVSP
modifications: expressed in HEK293
B13: SEQID-00359: nutritive polypeptide naturally produced in Sheep, recombinantly expressed in E. coli (protein)
chain: MLELGSQRNRAKNNHIGDLMSQSFESLGISEQRARHLETLGFTEPTPVQIQAIPEMLSGRDVVGMAQTGTGKTAAFSLPILEQIDVHAAGIQALVLTPTRELAMQVKEAIRTFSDDNALYVLTVYGGQSIDRQIQRLRRGVQVVVGTPGRILDLLNRGELKLDLLRWLVLDEADEMLSMGFIQDVEKILESADSEHRQTAFFSATMDASISKLVRRHLKSPVTVKVETPKATPKRIEQSVYMVPRGWSKARALEPILELEDPESAIIFVRTKQSAADLTNQLQAAGHSVDEYHGNLNQSQRERLLMRLRRRQVRWIVATDIAARGLDVDHLTHVINYDLPDQVDSYVHRIGRTGRAGREGKAITLIQPIDRRKLRNIERHLRQTLSIQSIPKRAEIEARYIDRLKDRVRDALAGERMASFLPIVSQLSEEYDPHAIAAAALQLAYDQTRPASIGRDDYEDDDDAVSNKPKLIKRRRPASVSNNS
modifications: Arthrospira platensis NIES-39

Experiments:
[1] = Thermostability, temperature of aggregation (ProteoStat Thermal Shift); type: physicochemical; parameters: key to Tagg: temperature in °C; details: pH 7.1
Protocol: The thermostability of proteins in a buffer cocktail of Citric Acid and Dibasic Sodium Phosphate over a pH range of 2.8 to 7.1 (preparation described above in Table E31B) was determined using the ProteoStat® Thermal Shift Stability Kit (Enzo Life Sciences) according to the manufacturer's standard protocol. Briefly, protein solutions (˜10 mg/ml) containing 1× ProteoStat TS Detection Reagent were heated from 25° C. to 95° C. at a rate of 0.5° C. per 30 sec using a real-time PCR (rtPCR) thermocycler (BioRad) equipped with a plate reader (SynergyMx, Biotek) while monitoring the fluorescence with a Texas Red filter.

[2] = Intact half-life during simulated gastric fluid (SGF) digestion; details: for SGF Half-life (t½): SGF pH 1.5, pepsin:polypeptide 1:20 w/w, 37° C., intact protein; for Half-life: purified proteins, chip electrophoresis
Protocol: In this experiment the nutritive polypeptide was exposed to a series of proteases that are active in the stomach (pepsin) and intestine (trypsin and chymotrypsin), and the presence of intact protein was measured over time. Specifically, the nutritive polypeptide was first treated at a concentration of 2 g/L with simulated gastric fluid (SGF) (0.03 M NaCl, titrated with HCl to pH 1.5 with a final pepsin:polypeptide ratio of 1:20 w/w) at 37° C. Time points were sampled from the reaction and quenched by addition of 0.2 M Na2CO3. […] Time points were sampled from the reaction and quenched by addition of Trypsin/Chymotrypsin Inhibitor (Sigma) solution until 240 min.
Time point samples were analyzed for intact protein by chip electrophoresis, polyacrylamide gel electrophoresis, or western blot. For chip electrophoresis (Labchip GX II), samples were analyzed using a HT Low MW Protein Express LabChip® Kit (following the manufacturer's protocol). A protein ladder was loaded every 12 samples for molecular weight determination (kDa) and quantification. For polyacrylamide gel electrophoresis, samples (1 μg) were separated on a NuPAGE® Novex® Bis-Tris Precast gel (Life Technologies) according to the manufacturer's protocol. The gel was stained using SimplyBlue™ SafeStain (Invitrogen) and imaged using a Chemidoc XRS+ (BioRad) or transferred onto nitrocellulose membranes using the iBlot® Dry Blotting System (Life Technologies) and iBlot® Western Detection Kit (Life Technologies) according to the manufacturer's protocol. Proteins were detected by blotting with Anti-His [C-term]-HRP antibody diluted 3:5000 in Blok™-PO Blocking Buffer using the SNAP I.d.® Protein Detection System (Millipore) according to the manufacturer's protocol. Blots were treated with Luminata Classico Western HRP Substrate (Millipore) according to the manufacturer's protocol and imaged using chemiluminescent detection on the Molecular Imager® Gel Doc™ XR+ System (Bio-Rad). Quantification of intact protein was determined by densitometry using ImageLab (BioRad). For all analysis methods the relative concentration of the polypeptide at each time point (if detected) was plotted overtime and fit to an exponential curve to calculate the intact half-life.
Specifically, the t=0 (enzyme-free control) and t=2 min samples from the SGF digest were analyzed for intact protein as described by chip electrophoresis, SDS-PAGE, western blot, and/or LC-MS/MS. Relative quantities of polypeptides at each time point were determined and the percentage of intact protein remaining at t=2 was determined. Intact half-life values determined using this method are reported as greater or less than 2 min to indicate more or less than 50% of the protein remained intact at t=2 min, respectively.

[3] = SGF digest of 168 nutritive polypeptide library, intact protein by LC-MS/MS; type: in vitro ADME; details: for % Intact Protein at 10 min: 168 nutritive polypeptide library SGF digest, LC-MS/MS spectral counts; for % Remaining at 10 min: 168 nutritive polypeptide library, LC-MS/MS
In short: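 A 168-protein IMAC-purified recombinant library was digested in simulated gastric fluid and the 0 and 10 min samples were profiled by SDS-PAGE fractionation, in-gel trypsin digestion and nanoLC-MS/MS. Percent intact protein at 10 min is the ratio of spectral counts (t10/t0), summed over the peak fraction and two flanking fractions. Filters were 1% FDR and at least two unique peptides.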

Molecule	SGF Half-life (t½) [2] [s]	also measured
B1	24	Tagg [1]: >95
B2	72	
B3	<600	% Intact Protein at 10 min [3]: 0%
B4	30	% Intact Protein at 10 min [3]: 24.3%; % Remaining at 10 min [3]: 24.3%; Half-life [2]: 30 s
B5	18	
B6	12	
B7	12	% Intact Protein at 10 min [3]: 12%; % Remaining at 10 min [3]: 12%; Half-life [2]: 12 s
B8	12	
B9	<600	
B10	12	
B11	30	
B12	516	
B13	12	
